B4: ART-37 (LexA DNA binding domain fusion) (other)
chain: MKALTARQQEVFDLIRDHISQTGMPPTRAEIAQRLGFRSPNAAEEHLKALARKGVIEIVSGASRGIRLLQEEEEGLPLVGRVAAGEPLLAQQHIEGHYQVDPSLFKPNADFLLRVSGMSMKDIGIMDGDLLAVHKTQDVRNGQVVVARIDDEVTVKRLKKQGNKVELLPENSEFKPIVVDLRQQSFTIEGLAVGVIRNGDWLEFGTRARFTRGKSALLERALARPRTEVSLSAFALLSPSWYSTARAVFSVAELQSRLAALGRQVGARVLDALVAREKGARRETKVLGALLFVKGAVWKALFGKEADKLEQANDDARTFYIIEREPLINTYISVPKENSTLNCASFTAGIVEAVLTHSGFPAKVTAHWHKGTTLMIKFEEAVIARDRLEGR
notes: Clone from an LNCaP prostate cancer cell cDNA library

In assay [1] the target is B42-AR18-500 (rat androgen receptor N-terminus, residues 18-500, fused to the B42 activation domain) (rat) (UniProt P15207). Put plainly: cell-based or functional assay.
Assay [2] concerns the target T1, ART-27 (full length, 1-157; LexA DNA binding domain fusion) (human, UniProt P0A7C2 1-202; Q9UBK9 1-157).
T1 construct: also called LexA-ART-27; pEG202:ART-27
Put plainly: modified yeast interaction-trap assay, liquid beta-galactosidase.

Assay [3] addresses T2, B42-AR18-500 (rat androgen receptor N-terminus, residues 18-500, fused to the B42 activation domain) (rat, UniProt P15207 18-500).
T2 construct: range 18-500; Yeast two-hybrid bait, galactose-inducible; also called AR18-500-AD; pJG4-5:AR18-500
T2 sequence (looked up): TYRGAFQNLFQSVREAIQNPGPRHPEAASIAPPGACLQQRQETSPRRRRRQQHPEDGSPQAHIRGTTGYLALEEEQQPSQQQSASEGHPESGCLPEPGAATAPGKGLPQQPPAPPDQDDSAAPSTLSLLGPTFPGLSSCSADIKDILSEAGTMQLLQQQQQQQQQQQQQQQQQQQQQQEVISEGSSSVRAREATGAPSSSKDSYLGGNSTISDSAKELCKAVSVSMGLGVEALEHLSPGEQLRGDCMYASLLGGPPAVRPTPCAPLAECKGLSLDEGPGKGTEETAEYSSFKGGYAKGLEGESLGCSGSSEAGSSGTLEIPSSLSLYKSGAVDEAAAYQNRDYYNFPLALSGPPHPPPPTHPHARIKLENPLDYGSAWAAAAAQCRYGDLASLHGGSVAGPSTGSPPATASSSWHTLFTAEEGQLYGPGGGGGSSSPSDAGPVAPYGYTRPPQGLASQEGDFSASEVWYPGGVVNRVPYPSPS
Put plainly: modified yeast two-hybrid, plate beta-galactosidase assay.

For assay [4], the target named is T2, B42-AR18-500 (rat androgen receptor …). Put plainly: modified yeast two-hybrid screen of a LexA-LNCaP cDNA library.
Assay [5] concerns the target T1, ART-27 (full length, 1-157; LexA DNA …). Put plainly: modified yeast two-hybrid, plate beta-galactosidase assay.
Assay [6] concerns the target B4. The assay is described as above.
In assay [7] the target is T3, ART-5 (LexA DNA binding domain fusion) (UniProt P0A7C2 1-202, limits assumed).
T3 construct: Clone from an LNCaP prostate cancer cell cDNA library
T3 sequence: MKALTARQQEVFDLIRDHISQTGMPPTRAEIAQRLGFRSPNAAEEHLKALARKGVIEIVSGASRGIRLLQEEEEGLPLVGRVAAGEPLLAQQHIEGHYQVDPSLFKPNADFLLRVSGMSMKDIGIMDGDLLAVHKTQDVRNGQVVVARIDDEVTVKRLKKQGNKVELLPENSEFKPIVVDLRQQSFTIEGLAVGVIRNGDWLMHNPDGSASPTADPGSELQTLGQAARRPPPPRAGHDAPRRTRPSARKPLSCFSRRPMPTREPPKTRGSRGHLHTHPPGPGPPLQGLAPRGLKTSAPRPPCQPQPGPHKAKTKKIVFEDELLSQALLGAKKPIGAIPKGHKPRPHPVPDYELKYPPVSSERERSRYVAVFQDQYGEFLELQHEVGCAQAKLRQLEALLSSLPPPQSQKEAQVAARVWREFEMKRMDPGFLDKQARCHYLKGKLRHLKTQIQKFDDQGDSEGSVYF
The description is as above.

Assay [8] concerns the target T1, ART-27 (full length, 1-157; LexA DNA …). Put plainly: modified yeast two-hybrid, liquid beta-galactosidase assay.

For the molecule “LexA vector alone (from UniProt P0A7C2 1-202)”, in assay [1], the quantitative liquid beta-galactosidase assay (modified yeast two-hybrid) (unit of activity) is 1.

B1: B42-AR153-336 (receptor, rat, UniProt P15207 153-336, looked up, not shown: large carriers)
chain: LSSCSADIKDILSEAGTMQLLQQQQQQQQQQQQQQQQQQQQQQEVISEGSSSVRAREATGAPSSSKDSYLGGNSTISDSAKELCKAVSVSMGLGVEALEHLSPGEQLRGDCMYASLLGGPPAVRPTPCAPLAECKGLSLDEGPGKGTEETAEYSSFKGGYAKGLEGESLGCSGSSEAGSSGTLE
Turning to B1, the binding result in assay [2] is recorded as “binds”.

B2: LexA-ART-27 68-157 (other, UniProt P0A7C2 1-202, looked up)
chain: MKALTARQQEVFDLIRDHISQTGMPPTRAEIAQRLGFRSPNAAEEHLKALARKGVIEIVSGASRGIRLLQEEEEGLPLVGRVAAGEPLLAQQHIEGHYQVDPSLFKPNADFLLRVSGMSMKDIGIMDGDLLAVHKTQDVRNGQVVVARIDDEVTVKRLKKQGNKVELLPENSEFKPIVVDLRQQSFTIEGLAVGVIRNGDWLYMQVDLGCNFFVDTVVPDTSRIYVALGYGFFLELTLAEALKFIDRKSSLLTELSNSLTKDSMNIKAHIHMLLEGLRELQGLQNFPEKPHH
B2: the binding result in assay [3] is given as “no binding”.

B3: LexA-ART-27 127-157 (other, UniProt P0A7C2 1-202, looked up)
chain: MKALTARQQEVFDLIRDHISQTGMPPTRAEIAQRLGFRSPNAAEEHLKALARKGVIEIVSGASRGIRLLQEEEEGLPLVGRVAAGEPLLAQQHIEGHYQVDPSLFKPNADFLLRVSGMSMKDIGIMDGDLLAVHKTQDVRNGQVVVARIDDEVTVKRLKKQGNKVELLPENSEFKPIVVDLRQQSFTIEGLAVGVIRNGDWLDSMNIKAHIHMLLEGLRELQGLQNFPEKPHH
In the case of B3, the binding result in assay [3] is “no binding”.
For B4, the binding result in assay [4] was “binds”.

B5: rat AR ligand binding domain (AR579-901) in pJG4-5 (receptor, UniProt P15207 579-901, looked up, not shown: large carriers)
chain: ASRNDCTIDKFRRKNCPSCRLRKCYEAGMTLGARKLKKLGNLKLQEEGENSSAGSPTEDPSQKMTVSHIEGYECQPIFLNVLEAIEPGVVCAGHDNNQPDSFAALLSSLNELGERQLVHVVKWAKALPGFRNLHVDDQMAVIQYSWMGLMVFAMGWRSFTNVNSRMLYFAPDLVFNEYRMHKSRMYSQCVRMRHLSQEFGWLQITPQEFLCMKALLLFSIIPVDGLKNQKFFDELRMNYIKELDRIIACKRKNPTSCSRRFYQLTKLLDSVQPIARELHQFTFDLLIKSHMVSVDFPEMMAEIISVQVPKILSGKVKPIYFHT
notes: range 579-901
Turning to B5, the binding result in assay [5], in assay [6] and in assay [7] was “no binding” throughout.

B6: B42-AR18-156 (receptor, rat, UniProt P15207 18-156, looked up, not shown: large carriers)
chain: TYRGAFQNLFQSVREAIQNPGPRHPEAASIAPPGACLQQRQETSPRRRRRQQHPEDGSPQAHIRGTTGYLALEEEQQPSQQQSASEGHPESGCLPEPGAATAPGKGLPQQPPAPPDQDDSAAPSTLSLLGPTFPGLSSC
Turning to B6, the binding result in assay [8] is on record as “no binding”.

B7: LexA-ART-27 46-157 (other, UniProt P0A7C2 1-202, looked up)
chain: MKALTARQQEVFDLIRDHISQTGMPPTRAEIAQRLGFRSPNAAEEHLKALARKGVIEIVSGASRGIRLLQEEEEGLPLVGRVAAGEPLLAQQHIEGHYQVDPSLFKPNADFLLRVSGMSMKDIGIMDGDLLAVHKTQDVRNGQVVVARIDDEVTVKRLKKQGNKVELLPENSEFKPIVVDLRQQSFTIEGLAVGVIRNGDWLLAKYLQLRNVIERLQEAKHSELYMQVDLGCNFFVDTVVPDTSRIYVALGYGFFLELTLAEALKFIDRKSSLLTELSNSLTKDSMNIKAHIHMLLEGLRELQGLQNFPEKPHH
B7: the binding result in assay [3] is reported as “no binding”.

B8: LexA-ART-27 1-67 (other, UniProt P0A7C2 1-202, looked up)
chain: MKALTARQQEVFDLIRDHISQTGMPPTRAEIAQRLGFRSPNAAEEHLKALARKGVIEIVSGASRGIRLLQEEEEGLPLVGRVAAGEPLLAQQHIEGHYQVDPSLFKPNADFLLRVSGMSMKDIGIMDGDLLAVHKTQDVRNGQVVVARIDDEVTVKRLKKQGNKVELLPENSEFKPIVVDLRQQSFTIEGLAVGVIRNGDWLMATPPKRRAVEATGEKVLRYETFISDVLQRDLRKVLDHRDKVYEQLAKYLQLRNVIERLQEAKHSEL
notes: also called ART-27 derivative 1-67
On to B8, for which the binding result in assay [3] was “no binding”.

B9: LexA-ART-27 1-45/127-157 (other, UniProt P0A7C2 1-202, looked up)
chain: MKALTARQQEVFDLIRDHISQTGMPPTRAEIAQRLGFRSPNAAEEHLKALARKGVIEIVSGASRGIRLLQEEEEGLPLVGRVAAGEPLLAQQHIEGHYQVDPSLFKPNADFLLRVSGMSMKDIGIMDGDLLAVHKTQDVRNGQVVVARIDDEVTVKRLKKQGNKVELLPENSEFKPIVVDLRQQSFTIEGLAVGVIRNGDWLMATPPKRRAVEATGEKVLRYETFISDVLQRDLRKVLDHRDKVYEQDSMNIKAHIHMLLEGLRELQGLQNFPEKPHH
notes: The two fragments were joined through a BamHI site
Regarding B9, the binding result in assay [3] is given as “no binding”.

B10: LexA-ART-27 1-45 (other, UniProt P0A7C2 1-202, looked up)
chain: MKALTARQQEVFDLIRDHISQTGMPPTRAEIAQRLGFRSPNAAEEHLKALARKGVIEIVSGASRGIRLLQEEEEGLPLVGRVAAGEPLLAQQHIEGHYQVDPSLFKPNADFLLRVSGMSMKDIGIMDGDLLAVHKTQDVRNGQVVVARIDDEVTVKRLKKQGNKVELLPENSEFKPIVVDLRQQSFTIEGLAVGVIRNGDWLMATPPKRRAVEATGEKVLRYETFISDVLQRDLRKVLDHRDKVYEQ
notes: also called ART-27 derivative 1-45
With B10, the binding result in assay [3] is reported as “no binding”.
